# Measured values taken from paper PMC9288967.
# How the values were obtained:
# [1] = biological target: spike RBD of the Delta variant (B.1.617.2) (SARS-CoV-2) (UniProt P0DTC2); assay: cross-linking
# [2] = biological target: spike RBD of the Alpha variant (B.1.1.7) (SARS-CoV-2) (UniProt P0DTC2); assay: cross-linking
substance,measurement,setting,value
mNb6(108FFY) (VHH),kobs (apparent first-order constant of cross-linking),[1],0.156 h⁻¹
same,kobs (apparent first-order constant of cross-linking),[2],0.086 h⁻¹
